Laboratory results: article PMC6761829 (Nature structural & molecular biology, 2019)
Where no end group is shown, it is not given here.

B1: VGSEEEEEEEEEE peptide labeled with Atto488 (peptide)
peptide: Atto488-VGSEEEEEEEEEE
B2: Full-length Drosophila melanogaster spastin with a Walker B mutation (E583Q) (enzyme, UniProt Q8I0P1 1-758, looked up)
chain: MVRTKNQSSSSSASSSSTKSPIKSSSGAGSSGGGLGGRQSTHRSSSASNVAAVVAGGSSAAGGGSSSNRRSPGSSPDGDDDTTTTDDLTPTTCSPRSGHHHSYGGYSSSVHKQNLYVVSFPIIFLFNVLRSLIYQLFCIFRYLYGASTKVIYRPHRRDCNIEIVVQNSSKEQQQSLNHPSELNREGDGQEQQLSNQPQRFRPIQPLEMAANRPGGGYSPGPGDPLLAKQKHHHRRAFEYISKALKIDEENEGHKELAIELYRKGIKELEDGIAVDCWSGRGDVWDRAQRLHDKMQTNLSMARDRLHFLALREQDLQMQRLSLKEKQKEEAQSKPQKTREPMLAGMTNEPMKLRVRSSGYGPKATTSAQPTASGRKLTIGSKRPVNLAVANKSQTLPRNLGSKTSVGAVQRQPAKTAATPPAVRRQFSSGRNTPPQRSRTPINNNGPSGSGASTPVVSVKGVEQKLVQLILDEIVEGGAKVEWTDIAGQDVAKQALQEMVILPSVRPELFTGLRAPAKGLLLFGPPGNGKTLLARAVATECSATFLNISAASLTSKYVGDGEKLVRALFAVARHMQPSIIFIDQVDSLLSERSSSEHEASRRLKTEFLVEFDGLPGNPDGDRIVVLAATNRPQELDEAALRRFTKRVYVSLPDEQTRELLLNRLLQKQGSPLDTEALRRLAKITDGYSGSDLTALAKDAALEPIRELNVEQVKCLDISAMRAITEQDFHSSLKRIRRSVAPQSLNSYEKWSQDYGDITI

Legend:
[1] = molecular target: B2; experiment: AUC
AUC = molecular target: the molecule itself; experiment: AUC

## B1
[1]
  binding result: binds

## B2
AUC
  stoichiometry N: 6
